Measured values published in patent US11781118B2, “Preparation of L-amino acid deaminase mutant and application thereof” (Jiangnan University, priority 2020, dated 2023).

Experiment: Shake flask screening of mutants: whole-cell transformation of L-valine, α-ketoisovaleric acid determined by HPLC
Format: cell-based, E. coli BL21
Conditions: transformation temperature 25° C., pH 8.0, 24 h
Protocol: Preparation of sample for determining α-ketoisovaleric acid content by HPLC: 1 mL of a transformed transformation solution is centrifuged at 12000 rpm for 5 min, the supernatant is diluted and filtered through a 0.45 μm filtration membrane, and the filtrate is for liquid chromatography.
Determination of α-ketoisovaleric acid content by HPLC: a waters high performance liquid chromatograph (equipped with a UV-visible detector) and a Bio-Rad Aminex HPX-87H (300×7.8 mm, 9 μm) chromatographic column are used, and the mobile phase is dilute sulfuric acid with the concentration of 2.5 mmol/L. The mobile phase is filtered through a 0.22 μm filtration membrane; the filtrate is subjected to ultrasonic degassing; and detection is performed at the flow rate of 0.6 mL/min, the column temperature of 35° C. and the ultraviolet detection wavelength of 210 nm.
(2) Shake flask screening of single mutants: The obtained 4 mutant strains and a strain containing wild-type L-amino acid deaminase were respectively inoculated into an LB seed medium, and cultured at 200 rpm at 37° C. for about 10 h. The products were respectively inoculated into a shake flask fermentation medium with the inoculum size of 5% of the medium by volume, and cultured at 200 rpm at 37° C. until OD600 was about 0.8. IPTG with the final concentration of 0.04 mmol/L was added for induction, and the induction was performed at 200 rpm at 25° C. for 14 h. The product was centrifuged at 6000 rpm for 8 min to collect bacterial cells. The bacterial cells collected by centrifugation were used for later transformation experiments.
Transformation conditions: transformation temperature 25° C., reaction pH 8.0, and transformation time 24 h.
The yield of α-ketoisovaleric acid of the transformation solution after the completion of the transformation was determined by HPLC. Finally, S98A produced α-ketoisovaleric acid at the highest yield.

Molecule	α-ketoisovaleric acid [g/L]
PmirLAAD^S98A (protein) MNISRRKLLLGVGAAGVLAGGAALVPMVRRDGKFVEAKSRASFVEGTQGALPKEADVVIIGAGIQGIMTAINLAERGMSVTILEKGQIAGEQSGRAYAQIISYQTSPEIFPLHHYGKILWRGMNEKIGADTSYRTQGRVEALADEKALDKAQAWIKTAKEAAGFDTPLNTRIIKGEELSNRLVGAQTPWTVAAFEEDSGSVDPETGTPALARYAKQIGVKIYTNCAVRGIETAGGKISDVVSEKGAIKTSQVVLAGGIWSRLFMGNMGIDIPTLNVYLSQQRVSGVPGAPRGNVHLPNGIHFREQADGTYAVAPRIFTSSIVKDSFLLGPKFMHLLGGGELPLEFSIGEDLFNSFKMPTSWNLDEKTPFEQFRVATATQNTQHLDAVFQRMKTEFPVFEKSEVVERWGAVVSPTFDELPIISEVKEYPGLVINTATVWGMTEGPAAGEVTADIVMGKKPVIDPTPFSLDRFKK	46.9
PmirLAAD^T105A (protein) MNISRRKLLLGVGAAGVLAGGAALVPMVRRDGKFVEAKSRASFVEGTQGALPKEADVVIIGAGIQGIMTAINLAERGMSVTILEKGQIAGEQSGRAYSQIISYQASPEIFPLHHYGKILWRGMNEKIGADTSYRTQGRVEALADEKALDKAQAWIKTAKEAAGFDTPLNTRIIKGEELSNRLVGAQTPWTVAAFEEDSGSVDPETGTPALARYAKQIGVKIYTNCAVRGIETAGGKISDVVSEKGAIKTSQVVLAGGIWSRLFMGNMGIDIPTLNVYLSQQRVSGVPGAPRGNVHLPNGIHFREQADGTYAVAPRIFTSSIVKDSFLLGPKFMHLLGGGELPLEFSIGEDLFNSFKMPTSWNLDEKTPFEQFRVATATQNTQHLDAVFQRMKTEFPVFEKSEVVERWGAVVSPTFDELPIISEVKEYPGLVINTATVWGMTEGPAAGEVTADIVMGKKPVIDPTPFSLDRFKK	44.6
PmirLAAD^S98A/S106A (protein) MNISRRKLLLGVGAAGVLAGGAALVPMVRRDGKFVEAKSRASFVEGTQGALPKEADVVIIGAGIQGIMTAINLAERGMSVTILEKGQIAGEQSGRAYAQIISYQTAPEIFPLHHYGKILWRGMNEKIGADTSYRTQGRVEALADEKALDKAQAWIKTAKEAAGFDTPLNTRIIKGEELSNRLVGAQTPWTVAAFEEDSGSVDPETGTPALARYAKQIGVKIYTNCAVRGIETAGGKISDVVSEKGAIKTSQVVLAGGIWSRLFMGNMGIDIPTLNVYLSQQRVSGVPGAPRGNVHLPNGIHFREQADGTYAVAPRIFTSSIVKDSFLLGPKFMHLLGGGELPLEFSIGEDLFNSFKMPTSWNLDEKTPFEQFRVATATQNTQHLDAVFQRMKTEFPVFEKSEVVERWGAVVSPTFDELPIISEVKEYPGLVINTATVWGMTEGPAAGEVTADIVMGKKPVIDPTPFSLDRFKK	50.9
PmirLAAD^S98A/L341A (protein) MNISRRKLLLGVGAAGVLAGGAALVPMVRRDGKFVEAKSRASFVEGTQGALPKEADVVIIGAGIQGIMTAINLAERGMSVTILEKGQIAGEQSGRAYAQIISYQTSPEIFPLHHYGKILWRGMNEKIGADTSYRTQGRVEALADEKALDKAQAWIKTAKEAAGFDTPLNTRIIKGEELSNRLVGAQTPWTVAAFEEDSGSVDPETGTPALARYAKQIGVKIYTNCAVRGIETAGGKISDVVSEKGAIKTSQVVLAGGIWSRLFMGNMGIDIPTLNVYLSQQRVSGVPGAPRGNVHLPNGIHFREQADGTYAVAPRIFTSSIVKDSFLLGPKFMHLLGGGEAPLEFSIGEDLFNSFKMPTSWNLDEKTPFEQFRVATATQNTQHLDAVFQRMKTEFPVFEKSEVVERWGAVVSPTFDELPIISEVKEYPGLVINTATVWGMTEGPAAGEVTADIVMGKKPVIDPTPFSLDRFKK	51.5
PmirLAAD^T105A/L341A (protein) MNISRRKLLLGVGAAGVLAGGAALVPMVRRDGKFVEAKSRASFVEGTQGALPKEADVVIIGAGIQGIMTAINLAERGMSVTILEKGQIAGEQSGRAYSQIISYQASPEIFPLHHYGKILWRGMNEKIGADTSYRTQGRVEALADEKALDKAQAWIKTAKEAAGFDTPLNTRIIKGEELSNRLVGAQTPWTVAAFEEDSGSVDPETGTPALARYAKQIGVKIYTNCAVRGIETAGGKISDVVSEKGAIKTSQVVLAGGIWSRLFMGNMGIDIPTLNVYLSQQRVSGVPGAPRGNVHLPNGIHFREQADGTYAVAPRIFTSSIVKDSFLLGPKFMHLLGGGEAPLEFSIGEDLFNSFKMPTSWNLDEKTPFEQFRVATATQNTQHLDAVFQRMKTEFPVFEKSEVVERWGAVVSPTFDELPIISEVKEYPGLVINTATVWGMTEGPAAGEVTADIVMGKKPVIDPTPFSLDRFKK	47.1
PmirLAAD^T105A/S106A (protein) MNISRRKLLLGVGAAGVLAGGAALVPMVRRDGKFVEAKSRASFVEGTQGALPKEADVVIIGAGIQGIMTAINLAERGMSVTILEKGQIAGEQSGRAYSQIISYQAAPEIFPLHHYGKILWRGMNEKIGADTSYRTQGRVEALADEKALDKAQAWIKTAKEAAGFDTPLNTRIIKGEELSNRLVGAQTPWTVAAFEEDSGSVDPETGTPALARYAKQIGVKIYTNCAVRGIETAGGKISDVVSEKGAIKTSQVVLAGGIWSRLFMGNMGIDIPTLNVYLSQQRVSGVPGAPRGNVHLPNGIHFREQADGTYAVAPRIFTSSIVKDSFLLGPKFMHLLGGGELPLEFSIGEDLFNSFKMPTSWNLDEKTPFEQFRVATATQNTQHLDAVFQRMKTEFPVFEKSEVVERWGAVVSPTFDELPIISEVKEYPGLVINTATVWGMTEGPAAGEVTADIVMGKKPVIDPTPFSLDRFKK	49.4
PmirLAAD^S98A/T105A (protein) MNISRRKLLLGVGAAGVLAGGAALVPMVRRDGKFVEAKSRASFVEGTQGALPKEADVVIIGAGIQGIMTAINLAERGMSVTILEKGQIAGEQSGRAYAQIISYQASPEIFPLHHYGKILWRGMNEKIGADTSYRTQGRVEALADEKALDKAQAWIKTAKEAAGFDTPLNTRIIKGEELSNRLVGAQTPWTVAAFEEDSGSVDPETGTPALARYAKQIGVKIYTNCAVRGIETAGGKISDVVSEKGAIKTSQVVLAGGIWSRLFMGNMGIDIPTLNVYLSQQRVSGVPGAPRGNVHLPNGIHFREQADGTYAVAPRIFTSSIVKDSFLLGPKFMHLLGGGELPLEFSIGEDLFNSFKMPTSWNLDEKTPFEQFRVATATQNTQHLDAVFQRMKTEFPVFEKSEVVERWGAVVSPTFDELPIISEVKEYPGLVINTATVWGMTEGPAAGEVTADIVMGKKPVIDPTPFSLDRFKK	52.6
PmirLAAD^L341A (protein) MNISRRKLLLGVGAAGVLAGGAALVPMVRRDGKFVEAKSRASFVEGTQGALPKEADVVIIGAGIQGIMTAINLAERGMSVTILEKGQIAGEQSGRAYSQIISYQTSPEIFPLHHYGKILWRGMNEKIGADTSYRTQGRVEALADEKALDKAQAWIKTAKEAAGFDTPLNTRIIKGEELSNRLVGAQTPWTVAAFEEDSGSVDPETGTPALARYAKQIGVKIYTNCAVRGIETAGGKISDVVSEKGAIKTSQVVLAGGIWSRLFMGNMGIDIPTLNVYLSQQRVSGVPGAPRGNVHLPNGIHFREQADGTYAVAPRIFTSSIVKDSFLLGPKFMHLLGGGEAPLEFSIGEDLFNSFKMPTSWNLDEKTPFEQFRVATATQNTQHLDAVFQRMKTEFPVFEKSEVVERWGAVVSPTFDELPIISEVKEYPGLVINTATVWGMTEGPAAGEVTADIVMGKKPVIDPTPFSLDRFKK	43.6
PmirLAAD^S106A (protein) MNISRRKLLLGVGAAGVLAGGAALVPMVRRDGKFVEAKSRASFVEGTQGALPKEADVVIIGAGIQGIMTAINLAERGMSVTILEKGQIAGEQSGRAYSQIISYQTAPEIFPLHHYGKILWRGMNEKIGADTSYRTQGRVEALADEKALDKAQAWIKTAKEAAGFDTPLNTRIIKGEELSNRLVGAQTPWTVAAFEEDSGSVDPETGTPALARYAKQIGVKIYTNCAVRGIETAGGKISDVVSEKGAIKTSQVVLAGGIWSRLFMGNMGIDIPTLNVYLSQQRVSGVPGAPRGNVHLPNGIHFREQADGTYAVAPRIFTSSIVKDSFLLGPKFMHLLGGGELPLEFSIGEDLFNSFKMPTSWNLDEKTPFEQFRVATATQNTQHLDAVFQRMKTEFPVFEKSEVVERWGAVVSPTFDELPIISEVKEYPGLVINTATVWGMTEGPAAGEVTADIVMGKKPVIDPTPFSLDRFKK	44.9
PmirLAAD^S106A/L341A (protein) MNISRRKLLLGVGAAGVLAGGAALVPMVRRDGKFVEAKSRASFVEGTQGALPKEADVVIIGAGIQGIMTAINLAERGMSVTILEKGQIAGEQSGRAYSQIISYQTAPEIFPLHHYGKILWRGMNEKIGADTSYRTQGRVEALADEKALDKAQAWIKTAKEAAGFDTPLNTRIIKGEELSNRLVGAQTPWTVAAFEEDSGSVDPETGTPALARYAKQIGVKIYTNCAVRGIETAGGKISDVVSEKGAIKTSQVVLAGGIWSRLFMGNMGIDIPTLNVYLSQQRVSGVPGAPRGNVHLPNGIHFREQADGTYAVAPRIFTSSIVKDSFLLGPKFMHLLGGGEAPLEFSIGEDLFNSFKMPTSWNLDEKTPFEQFRVATATQNTQHLDAVFQRMKTEFPVFEKSEVVERWGAVVSPTFDELPIISEVKEYPGLVINTATVWGMTEGPAAGEVTADIVMGKKPVIDPTPFSLDRFKK	46.5
